One data set has as its system human IgE. Description: direct binding ELISA of IgE to mite allergen proteins and peptides. The conditions noted are these: for IgE reactivity, candidate peptides: data not shown; for IgE binding (ELISA), modified peptides: plasma of 19 mite-allergic patients and pool of 18, Example XV. A general note: ELISA stands for enzyme-linked immunosorbent assay.
A further data set concerns mast cells or basophils. Description: histamine release. Type of data set: cell-based, human. The conditions noted are these: data not shown. The protocol:
To determine whether a peptide which binds IgE results in the release of mediators, a histamine release assay can be performed using standard reagents and protocols obtained for example, from Amac, Inc. (Westbrook, Me.). Briefly, a buffered solution of a peptide to be tested is combined with an equal volume of whole heparinized blood from an allergic subject. After mixing and incubation, the cells are pelleted and the supernatants are processed and analyzed using a radioimmunoassay to determine the amount of histamine released.

A short description of another data set: pH-solubility profile. Type of data set: physicochemical. The conditions noted are these: for solubility (in words): aqueous buffer, superior solubility = >3 mg/ml at pH 6-8; for solubility: at a pH in the range pH 6 to pH 8. Here is the method:
(§1) 50 mM sodium phosphate stock solutions:
(§2) Stock solution A: 0.66 g […] of monobasic sodium phosphate monohydrate U.S.P. and 50 mg EDTA disodium dihydrate, U.S.P. were dissolved in 100 mL of WFI. The solution was filtered through a 0.2 micron filter
(§3) Stock solution B: 0.71 g […] of dibasic sodium phosphate U.S.P. were disolved in 100 ml WFI. The solution was filtered through a 0.2 micron filter.
(§4) 2. Initial peptide dispersions
(§5) Dispersion A: 3.0 mg of each candidate peptide,DPI-21.2 (SEQ. ID. NO. 28), DFI-22.2 (SEQ. ID. NO. 93), DFI-23.31(SEQ. ID. NO. 165), DFI-26.6 (SEQ. ID. NO. 168), DPII-20.9 (SEQ. ID. NO. 169), DPII-22.14 (SEQ. ID. NO. 180) and DPII-25.15 (SEQ. ID. NO. 188), was weighed out separately and placed in separate 1.5 mL eppendoff vials with 600 μL of stock solution A. The composition was agitated for 1 seconds to mix well.
(§6) Dispersion B: 3.0 mg of each peptide, DPI-21.2 (SEQ. ID. NO. 28), DFI-22.2 (SEQ. ID. NO. 93), DFI-23.31(SEQ. ID. NO. 165), DFI-26.6 (SEQ. ID. NO. 168), DPII-20.9 (SEQ. ID. NO. 169), DPII-22.14 (SEQ. ID. NO. 180) and DPII-25.15 (SEQ. ID. NO. 188), was weighed out separately and placed in separate 1.5 mL eppendoff vials with 600 μL of stock solution B. The mixture was agitated for 5 seconds to mix well.
(§7) Dispersions A and B were sonicated for 2 minutes for good homogeneity. A small volume was pipetted from each dispersion into a labeled eppendoff vial according to the following volume ratio:
(§8) The resultant solutions/suspensions were stored in the dark at about 22° C.±2 for 24 hours without agitation. The solutions were filtered and filtrates were analyzed for pH and peptide concentration.
(§9) The concentration of filtered peptide solutions was determined by HPLC analysis. In this experiment, the solubility of peptide at each pH is defined as the amount of peptide remaining in solution after filtration through a membrane filter having a 0.2 micrometer pore size. The extent of degradation of peptides was estimated by calculating the percent of total degradant peak area over the total peak area.
The pH values with respect to the solubility values was plotted and are shown in FIG. 37 for each respective peptide. As shown in the solubility curve for each peptide as represented in FIG. 37, peptides DPI-21.2 (SEQ. ID. NO. 28), DFI-22.2 (SEQ. ID. NO. 93), DFI-23.31 (SEQ. ID. NO. 165), DFI-26.6 (SEQ. ID. NO. 168), DPII-20.9 (SEQ. ID. NO. 169), DPII-22.14 (SEQ. ID. NO. 180) and DPII-25.15 (SEQ. ID. NO. 188) are each soluble at greater than 3 mg/ml at a pH in the pH range of pH 6 to pH 8.

Data set [1] can be described thus: pH-stability profile / solution stability (HPLC). Type of data set: physicochemical. The conditions noted are these: pH 6 to pH 8. Here is the method: as §1, §2, §3, §4, §5, §6, §7, §8, §9
The pH-stability profiles for each peptide DPI-21.2 (SEQ. ID. NO. 28), DFI-22.2 (SEQ. ID. NO. 93), DFI-23.31(SEQ. ID. NO. 165), DFI-26.6 (SEQ. ID. NO. 168), DPII-20.9 (SEQ. ID. NO. 169), DPII-22.14 (SEQ. ID. NO. 180) and DPII-25.15 (SEQ. ID. NO. 188) in equal concentration combination at 3, 2, and 1 mg/ml per peptide and prepared in duplicate as described above with one set stored at about 5° C. for 24 hours and one set stored at about 22° C.±2 for 24 hours, were calculated and tabulated as a function of the percentage of total of degradant peak area (FIG. 38).

For “DP II-22.14: DKELEAVFEANQNTKTAKAE; unique peptide”, in the data set on human IgE, the “IgE reactivity, candidate peptides” value is given as “negative” and the “IgE binding (ELISA), modified peptides” value was “No plasma samples contained IgE”. The histamine release result in the data set with mast cells or basophils is given as “negative”. Moreover, in the data set “pH-solubility profile”, the “solubility (in words)” value is recorded as “increased by an order of magnitude” and the solubility entry is reported as “greater than 3 mg/ml”. Further, the “stability (in words)” value in data set [1] is “acceptable solution stability”.

As to “DP I-21.2: Der p I peptide; unique peptide (SINGNAPAEIDLRQMRTVTPIRMQ)”, in the data set with human IgE, the “IgE reactivity, candidate peptides” value was “negative”. Besides, in the data set with mast cells or basophils, the histamine release result is “negative”. The solubility entry in the data set “pH-solubility profile” is reported as “greater than 3 mg/ml”. Also, in data set [1], the “stability (in words)” value is given as “acceptable solution stability”.

Regarding “DP I-23.31: modified Der p I peptide; unique peptide (DEEGVVQESYYRYVAREQSCRRPNAE)”, in the data set with human IgE, the “IgE reactivity, candidate peptides” value is “negative” and the “IgE binding (ELISA), modified peptides” value is “No plasma samples contained IgE”. Further, the histamine release entry in the data set with mast cells or basophils was “negative”. The solubility entry in “pH-solubility profile” is on record as “greater than 3 mg/ml”. Further, the “stability (in words)” value in data set [1] was “acceptable solution stability”.

Turning to DP II-22: QLEAVFEANQNTKTAKIEIKASIDGLEV, the “solubility (in words)” value in “pH-solubility profile” is “did not meet the "superior solubility" requirement of 3 mg/ml”. Moreover, the “stability (in words)” value is given as “stable” in data set [1] and “nor did it meet the stability requirement” in data set [1] (listed as SEQ. ID. NO. 207).

As to “DP I-26.6: modified Der p I peptide; unique peptide (DEGIKDLDAFRHYDGRTIIQRDNGYE)”, the “IgE reactivity, candidate peptides” value in the data set with human IgE was “negative”. The histamine release result with mast cells or basophils was “negative”. Also, the solubility result in “pH-solubility profile” is on record as “greater than 3 mg/ml”. Further, in data set [1], the “stability (in words)” value is “acceptable solution stability”.

With “DF I-22.2: VAATESAYLAYRNTSLDLSEQELVD, amino acid residues 40-64 of Der f I”, in the data set with human IgE, the “IgE reactivity, candidate peptides” value is “negative”. Also, in the data set with mast cells or basophils, the histamine release entry is “negative”. The solubility result in “pH-solubility profile” is given as “greater than 3 mg/ml”. Also, the “stability (in words)” value in data set [1] was “acceptable solution stability”.

Turning to “DP II-20.9: modified Der p II peptide; unique peptide (DQVDVKDCANHEIKKVLVPGCHGSE)”, in the data set with human IgE, the “IgE reactivity, candidate peptides” value was “negative” and the “IgE binding (ELISA), modified peptides” value is reported as “No plasma samples contained IgE”. The histamine release result in the data set with mast cells or basophils is listed as “negative”. For the same substance, the solubility result in “pH-solubility profile” is “greater than 3 mg/ml”. Further, in data set [1], the “stability (in words)” value is recorded as “acceptable solution stability”.

The record behind these values is US5968526A, “T cell epitopes of the major allergens from Dermatophagoides (house dust mite)” (Immulogic Pharamaceutical Corporation, priority 1995, dated 1999).
